# Earlier results, collected in article PMC8625919.
# Several values for one entry are separate records, joined by “and”; a condition that tells them apart may be missing. Equal entries are not always repeated.
# Columns and labels:
# [1] = molecular target: Neuropilin-1 (Homo sapiens) (UniProt O14786); test: ELISA type assay with AP-VEGF164
# [2] = molecular target: VEGFR-2D2-3 D2-3 (Homo sapiens) (UniProt P35968); test: ITC
# [3] = molecular target: VEGFR-2D2-3 D2-3 (Homo sapiens) (UniProt P35968); test: SPR
# [4] = molecular target: VEGFR-2 (Homo sapiens) (UniProt P35968)
# [5] = molecular target: VEGFR-1D1-3 D1-3 (Homo sapiens) (UniProt P17948); test: ITC
# [6] = molecular target: VEGFR-1D1-7 D1-7 (Homo sapiens) (UniProt P17948); test: ITC
# [7] = molecular target: VEGFR-3 D1-3 (Homo sapiens) (UniProt P35916)
# [8] = molecular target: VEGFR-3 D1-2 (Homo sapiens) (UniProt P35916)
# [9] = molecular target: VEGFR-3 D1-5 (Homo sapiens) (UniProt P35916)
# [10] = molecular target: VEGFR-3D1-2 D1-2 (Homo sapiens) (UniProt P35916); test: ITC
# [11] = molecular target: VEGFR-3D1-3 D1-3 (Homo sapiens) (UniProt P35916); test: ITC
# [12] = molecular target: VEGFR-3D1-5 D1-5 (Homo sapiens) (UniProt P35916); test: ITC
# UniProt O14786, sequence (O14786 22-923): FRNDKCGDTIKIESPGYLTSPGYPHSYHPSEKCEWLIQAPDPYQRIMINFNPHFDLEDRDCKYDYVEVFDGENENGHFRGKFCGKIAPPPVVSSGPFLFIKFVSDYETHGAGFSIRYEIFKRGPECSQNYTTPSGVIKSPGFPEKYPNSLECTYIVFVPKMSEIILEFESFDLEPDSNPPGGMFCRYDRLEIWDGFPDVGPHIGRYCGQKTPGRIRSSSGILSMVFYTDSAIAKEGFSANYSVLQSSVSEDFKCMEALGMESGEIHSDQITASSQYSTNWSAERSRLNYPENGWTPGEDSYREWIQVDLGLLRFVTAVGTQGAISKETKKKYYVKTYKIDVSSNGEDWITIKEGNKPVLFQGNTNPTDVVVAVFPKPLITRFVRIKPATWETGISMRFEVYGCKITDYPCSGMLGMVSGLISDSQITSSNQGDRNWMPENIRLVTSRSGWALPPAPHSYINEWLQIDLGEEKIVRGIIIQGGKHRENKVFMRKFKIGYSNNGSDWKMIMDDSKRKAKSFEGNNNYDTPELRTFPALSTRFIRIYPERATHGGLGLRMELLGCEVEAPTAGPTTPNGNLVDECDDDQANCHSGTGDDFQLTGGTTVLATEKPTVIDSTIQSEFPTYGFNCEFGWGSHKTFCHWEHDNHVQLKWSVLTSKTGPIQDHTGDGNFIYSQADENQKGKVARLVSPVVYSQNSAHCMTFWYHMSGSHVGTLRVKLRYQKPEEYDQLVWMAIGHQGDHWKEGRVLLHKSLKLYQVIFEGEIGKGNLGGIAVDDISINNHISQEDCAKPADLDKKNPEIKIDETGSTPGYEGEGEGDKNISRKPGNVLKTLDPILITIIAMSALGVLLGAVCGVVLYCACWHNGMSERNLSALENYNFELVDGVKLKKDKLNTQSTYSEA
substance,measurement,setting,value
VEGF164 (from UniProt Q00731),Kd,[1],3 nM
VEGF165 (from UniProt P15692),Kd,[2],170 nM and 18 nM
same,Kd,[3],36.7 nM
VEGF-A (from UniProt P15692),Kd,[4],0.113 nM
same,Kd,[5],47 nM
same,Kd,[6],1.7 nM
VEGF-C (from UniProt P49767),Kd,[7],140 nM
same,Kd,[8],250 nM
same,Kd,[9],3.7 nM
same,Kd,[2],16 nM
same,Kd,[10],250 nM
same,Kd,[11],140 nM
same,Kd,[12],3.7 nM
same,Kd,[3],18.2 nM
